Measured values published in the supplement of paper PMC9170038.

Assays:
MS2 coat protein [1] = assay: apparent KD of MS2 coat protein; higher = weaker reporter binding; conditions: Eterna round: R101
Experimental: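 RNA-MaP: designed FMN/MS2 RNA switches (84 nt design region) are transcribed on-chip within common flanks and titrated with SNAP-549-labelled MS2 coat protein (about 1-3000 nM) in 100 mM Tris pH 7.5, 80 mM KCl, 4 mM MgCl2, without or with 200 uM FMN. Median apparent KD per design; activation ratio = KD,OFF / KD,ON.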

MS2 coat protein [2] = assay: apparent KD of MS2 coat protein, switch ON state; designed switch direction (-1 OFF switch, 1 ON switch): 1; higher = weaker reporter binding; conditions: FMN input: 0 or 200 uM; Eterna round: R93 (includes R88 designs)
Procedure, shortened: (§1)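 In 100 mM Tris-HCl pH 7.5 with 80 mM KCl and 4 mM MgCl2, and without or with constant ligand, SNAP-549-labelled MS2 coat protein was titrated in twofold steps from 0.7 or 1.5 nM to 3 µM. Per-step times went from 0.8–1.5 h down to 10–20 min. The RNA switches were transcribed on-chip from Illumina sequencing clusters, and apparent KD is the per-design median of normalised cluster binding-curve fits.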

MS2 coat protein [3] = assay: apparent KD of MS2 coat protein, switch OFF state (with FMN for OFF switches, without FMN for ON switches); designed switch direction (-1 OFF switch, 1 ON switch): 1; higher = weaker reporter binding; conditions: FMN input: 0 or 200 uM; Eterna round: R93 (includes R88 designs)
Procedure, shortened: as §1

Row | Sequence | apparent KD of MS2 coat protein (MS2 coat protein [1]; input ligand: FMN 200 uM) | apparent KD of MS2 coat protein (MS2 coat protein [1]; input ligand: none) | apparent KD of MS2 coat protein (MS2 coat protein [2]) | apparent KD of MS2 coat protein (MS2 coat protein [3])
1 | AGGAGGAAUGUAGGAUAUAUAUAUAUAUAUAGACAAAGUGUAUAUAUAUAUAUAGAAGGACAUGAGGAUCACCCAUGUUUCCCU [#Lowering the energy 13] (puzzle (switch architecture): Small Loop Exclusion NG 1) | 6.87 nM | 8.11 nM | – | –
2 | UAUUCUUUGUUAGGAUAUGGGCCCACCCACCCACAAAGUGGGUGGGUGGGCCCAGAAGGAACAUGAGGAUCACCCAUGUAGGCC [#Aaaddddeeeeeeennnniiiinneeeee!] (puzzle (switch architecture): Small Loop Exclusion NG 1) | 88.5 nM | 6.16 nM | – | –
3 | GCAGCUAAUGCAGGAUAUCAGCACGUGUAGUGCUGAGAAGGGCACAUGAGGAUACCCACUGUGAUCAAUUAAUAUUAAUGCUGC [salish99#hingeEx3_55-58_002] (puzzle (switch architecture): Exclusion NG 1) | 18.4 nM | 50.2 nM | – | –
4 | ACACGUCGUGAGAAGGAGGAUCACCCUUUCGAAAGAAAUAGCCACCGUGAAAACGGUGGCAAAUCUUAGGAUAUCACGACGUGA [#SharedSequence - IExNG2: 5] (puzzle (switch architecture): Inverted Exclusion NG 2) | 189 nM | 189 nM | – | –
5 | UUAUUAUAUGUAGGAUAUGCAUAUUAUUACUGUGCAGAAGGACAUGAGGAUCACCCAUGUAUAUUAUUAUUAUAUAUUAUAUAU (puzzle (switch architecture): Exclusion NG 1) | 20.6 nM | 17.2 nM | – | –
6 | GACUGCAGGAUAACAACCUGCAGUCACUUCUGAGGAUCACCCAGAAGGGCUGAGGUAAUACCUCAGCAGGAUAUGGAGUGAAAA [#SharedSequence IExNG# - 5] (puzzle (switch architecture): Inverted Exclusion NG 3) | 141 nM | 64.3 nM | – | –
7 | UAUUCUUUGUUAGGAUAUGGGCCCACCCACCCACAAAGUGGGUGGGUGGGCCCAGAAGGAACAUGAGGAUCACCCAUGUAGGAA [#Aaaddddeeeeeeennnniiiinneeeee!] (puzzle (switch architecture): Small Loop Exclusion NG 1) | 53.1 nM | 11.7 nM | – | –
8 | AGGUGAGCUCGAUGGCGACAUGAGGAUCACCCAUGUACGAUCAGAAGGGCUCGGGCAAGAAGUGGGCAGGAUAUGGUCGGUGCC [Xeadion] (puzzle (switch architecture): Inverted Exclusion NG 3) | 4.5 nM | – | – | –
9 | GGUCGACUUCAAGGAUAUGGACUGCUUUGCAGUCCAGAAGGUGAGGAUCACCCACCUACGGUCAGGUUUCUGACCGAUCGACCU [#AddUracilToBrourdLoops 4 - Jieux - Exclusion NG1] (puzzle (switch architecture): Exclusion NG 1) | 8.62 nM | 7.94 nM | – | –
10 | AGAGCUGCUCAGAAGGAGGAUCACCCUUUCGAAAGAAAGACGGAGGCUGAAAAGCCUCCGAAAUUCUAGGAUAUGAGCAGCUCA [#SharedSequence - IExNG2: 1] (puzzle (switch architecture): Inverted Exclusion NG 2) | 411 nM | 204 nM | – | –
11 | AGGUAUACUUAGAAGGGCUCCAGCAAAGCUGGAGCAGGAUAUGAGGAUCACCCAUGUCACCUGACGGUCGAAACGACCGUCAGG [#SharedSequence - IExNG1: 9-1] (puzzle (switch architecture): Inverted Exclusion NG 1) | 76.4 nM | 22.8 nM | – | –
12 | ACACAUGAGGAUCACCCAUGUAGCUGGCGUCUGCGCCAGCCACAGGAUAUACGGUAACACAAACCGUAGAAGGGUGAUAAACAC [Inerre] (puzzle (switch architecture): Same State NG 3) | 54.5 nM | 113 nM | – | –
13 | GUCGGAAACGACAAGUCAGCUCGUGAGGAUAUACAUAAAUUAAAGAUCACAUGAGGAUCACCCAUGUAGAAGGCACGAGCUGAU [#StaticStemDeletion - ENG2/2-A2] (puzzle (switch architecture): Small Loop Exclusion NG 3) | 455 nM | 195 nM | – | –
14 | GGAAUAAAUGCAGGAUAUACGUGGAAAGCCCUCAACAUGAGGAUCACCCAUGUAGAAGGGCAUCUCCCGACCGAAGCGGAUCUC [Laisraus] (puzzle (switch architecture): Small Loop Exclusion NG 1) | 4.83 nM | – | – | –
15 | AAUAAUCUUUAAGGAUAUCAGUGGCAAAGCCACUGAGAAGGUGAGGAUCACCCAUCUACGUGACCCUGGAAACAGGGUCACGAA [#SharedSequence - ExNG1-12] (puzzle (switch architecture): Exclusion NG 1) | 84.6 nM | 66.7 nM | – | –
16 | CGCUAUGACAUGAGGAUCACCCAUGUAUACAUGGGAAUGACGUAGGAUAUGCAGAAGAUUAAAGUGCAGAAGGACGGCUUAGCG [JR #DistanceClose #Static #NP SSNG3 Sub064] (puzzle (switch architecture): Same State NG 3) | 1020 nM | 830 nM | – | –
17 | UAUAACGAAAGAGGAUAUAUCGGCCGUCUACGGAUAGAAGGCUUUCGCUAUGGCACUGAUGAUCUACAUGAGGAUCACCCAUGU [EternaBot731] (puzzle (switch architecture): Exclusion NG 1) | 7.18 nM | – | – | –
18 | GGUACUCAAAGAGUACCAAUACGAACAUGAGGAUCACCCAUGUAGGAUAUGCUACUCAAAGAGUAGCAGAAGGACAUGUGUCUA [jl-ex3-3.01 #GC_VS_GU_SWITCHING] (puzzle (switch architecture): Exclusion NG 3) | 55.5 nM | 13.9 nM | – | –
19 | GGAGAUACAUGAGGAUCACCCAUGUAGGAUAUCGGGCCCAUAUCCGGCGAAAGCCGGAUAUGGGCCGAGAAGGGCGUACACACC [#LOL-6] (puzzle (switch architecture): Small Loop Exclusion NG 3) | 7.58 nM | 8.68 nM | – | –
20 | GUGCUUGUCGAAGGAUAUGGUUACAUGAGGAUCACCCAUGUUAUGCUUGGUUACUUGUUUAGUUUCCAGAAGGUCGAUUAGUUG [salish99_ExNG2_001 #Hinge] (puzzle (switch architecture): Exclusion NG 2) | 55.7 nM | 23 nM | – | –
21 | AAAAAACAUGAGGAUCACCCAUGUCUUCGGACGUGAGGAUAUGUACAGACUUCGGUCUGUACAGAAGGCAUGUAAA [SS1 - 1052] | – | – | 286 nM | 186 nM
22 | UGUCCACAUGAGGAUCACCCAUGUCAGGAGGUGACAGGAUAUUGCGAAAAAAAAAAAAAGCAAGAAGGGUCUGAUU [SameState1-cac1] | – | – | 36.4 nM | 98.4 nM
23 | GAAAAACAUGAGGAUCACCCAUGUGAGAAUAUGGGAGGAUAUACGAAGACGAGAGUCAAAGUAGAAGGCCUAAAAG [Mat - Same State 1 - Eli mod - 30] | – | – | 27.2 nM | 82.9 nM
24 | AGAAAUAAAGCGAAGGAUAUCCAAACCUAAACAUGAGGAUCACCCAUGUAAAAGAAAAUAAAAUGGGAGAAGGUCGCAAAUAAGA [Designing denovo 14] | – | – | 13.5 nM | 22.8 nM
25 | AAAAAAAAAAGACAGGAUAUACAAUAUAUUACAUGAGGAUCACCCAUGUUUUUUUUUUAAUUAAAGUAGAAGGGUCAAAAAAAAAA [SS 2.1] | – | – | 25.6 nM | 30.3 nM
26 | GGGAGACAUGAGGAUCACCCAUGUGAGAAGAGGCGAGGAUAUCGAAAGAAAGAAGAGAAACGAGAAGGCGCGAGCC [salish99-SS1-064] | – | – | 94.2 nM | 66.4 nM
27 | AAAAAAAAAAGUGAGGAUAUGGGAAAAUUAACAUGAGGAUCACCCAUGUGAUAAAAAAAAAAAAACCAGAAGGUACAAAAAAAAA [Original 73%, More Wateronthemoon, 1] | – | – | 16 nM | 42.3 nM
28 | AUUACAUAUAGUUAGGAUAUCAUAUGUAAGACAUGAGGAUCACCCAUGUCCUAAGAAUAGGUAAAUGAGAAGGAACAGUGAGUAU [JR_SS002_Sub419] | – | – | 17.1 nM | 23.9 nM
29 | GAAAAACAUGAGGAUCACCCAUGUGGAAAUAUGGGAGGAUAUACAAAGACGGAAGUCAAAGUAGAAGGCCUAAAAG [Mat - Same State 1 - Eli mod - D10] | – | – | 26.5 nM | 119 nM
30 | AAAUAAAUGACUCAGGAUAUAUCAUAGAAAACAUGAGGAUCACCCAUGUAAUAAUAACAUGUUUGGUAGAAGGGAGUCAAUAAAU [LROPPY Same State 2 - v04_deltaG=1.25] | – | – | 31.1 nM | 18.6 nM
